Test results: PMC4196948
Values joined by “and” are separate entries in the source; they are usually repeats but may differ in a detail not shown here. Equal entries are not always repeated.

Experiments:
[1] = target: wild type tcSOD (hyperthermostable Fe-superoxide dismutase from Tengchong hot springs) (not stated (metagenomic library of hot springs in Tengchong, China)); experiment: cross-linking; 0.5 mM DSP for 10 min after 50 min at the given temperature, without DTT; read by SDS-PAGE and native-PAGE
[2] = target: wild type tcSOD (hyperthermostable Fe-superoxide dismutase from Tengchong hot springs) (not stated (metagenomic library of hot springs in Tengchong, China)); experiment: native gel or EMSA; tetramers and high-order oligomers separated by ion exchange (Resource Q), concentrated to 0.3 mg/ml, heated at 80°C or 95°C, then 10% native-PAGE; step: tetramers to octamers
[3] = target: wild type tcSOD (hyperthermostable Fe-superoxide dismutase from Tengchong hot springs) (not stated (metagenomic library of hot springs in Tengchong, China)); experiment: cross-linking; glutaraldehyde, 20 mM sodium phosphate pH 7.4, after heating at 25°C or 80°C for 50 min, cross-linked 1 or 5 min; read by 12.5% SDS-PAGE
[4] = target: wild type tcSOD (hyperthermostable Fe-superoxide dismutase from Tengchong hot springs) (not stated (metagenomic library of hot springs in Tengchong, China)); experiment: native gel or EMSA; 10% native-PAGE (also 5-15% gradient), 20 mM PBS pH 7.4, 0.1-1.0 mg/ml (mutants 1 mg/ml), bands quantified by GIS software; step: tetramers to high-order oligomers; fractions almost unchanged with 0-5 M NaCl, pH 3-11 or 80°C for 60 min
[5] = target: wild type tcSOD (hyperthermostable Fe-superoxide dismutase from Tengchong hot springs) (not stated (metagenomic library of hot springs in Tengchong, China)); experiment: native gel or EMSA; 10% native-PAGE (also 5-15% gradient native-PAGE), 20 mM PBS pH 7.4, 0.1-1.0 mg/ml (mutants 1 mg/ml); the predominant oligomer (quaternary structure)
[6] = target: wild type tcSOD (hyperthermostable Fe-superoxide dismutase from Tengchong hot springs) (not stated (metagenomic library of hot springs in Tengchong, China)); experiment: SEC; Superdex 200HR 10/30, 20 mM sodium phosphate pH 7.4, 25°C, 0.5 ml/min; protein 0.1 to 1.0 mg/ml, not cross-linked
[7] = target: tcSOD truncation mutant M202 (residues 1-201) (not stated (metagenomic library of hot springs in Tengchong, China)); experiment: cross-linking; glutaraldehyde, 20 mM sodium phosphate pH 7.4, after heating at 25°C or 80°C for 50 min, cross-linked 1 or 5 min; read by 12.5% SDS-PAGE

Row | stoichiometry N [1] | stoichiometry N [2] | stoichiometry N [3] | fraction of high-order oligomers (at 0.1 mg/ml) [4] [%] | fraction of high-order oligomers (at 1.0 mg/ml) [4] [%] | stoichiometry N [4] | stoichiometry N [5] | stoichiometry N [6] | stoichiometry N [7] | Substance
1 | 2 | 8 | 4 and 2 | 1.5 | 5 | > 8 | 4 | 4 | – | wild type tcSOD (hyperthermostable Fe-superoxide dismutase from Tengchong hot springs) (enzyme)
2 | – | – | – | – | – | – | – | – | 4 and 2 | tcSOD truncation mutant M202 (residues 1-201) (domain or fragment)
